Two molecules from publication PMC10499537 (Biomedicine & pharmacotherapy = Biomedecine & …, 2023) can be followed below.

In test [1] the target is T1, ADAM10 D+C domains construct (species not named for the experiment) (Bos taurus, assumed).
T1 chain: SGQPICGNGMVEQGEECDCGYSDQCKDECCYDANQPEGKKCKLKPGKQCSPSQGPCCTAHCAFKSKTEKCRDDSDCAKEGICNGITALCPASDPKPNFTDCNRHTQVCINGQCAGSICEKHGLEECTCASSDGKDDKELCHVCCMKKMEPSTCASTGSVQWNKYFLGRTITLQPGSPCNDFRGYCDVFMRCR
Briefly: ELISA. For orientation: An ELISA detects its analyte on a solid surface through an enzyme-linked reagent.

Test [2] has as its target full recombinant ADAM10 ECD (species not named for the experiment) (Bos taurus, assumed, UniProt Q10741). In words: BLI. A general note: Biolayer interferometry detects binding as a change in optical thickness at a sensor tip.
Test [3] has as its target human ADAM19 D+C construct (438-646) (Homo sapiens, UniProt Q9H013). Briefly: ELISA.
In test [4] the target is human ADAM17 D+C (482-648) (Homo sapiens, UniProt P78536). Briefly: ELISA.
Chain of human ADAM17 D+C (482-648) (P78536 482-648): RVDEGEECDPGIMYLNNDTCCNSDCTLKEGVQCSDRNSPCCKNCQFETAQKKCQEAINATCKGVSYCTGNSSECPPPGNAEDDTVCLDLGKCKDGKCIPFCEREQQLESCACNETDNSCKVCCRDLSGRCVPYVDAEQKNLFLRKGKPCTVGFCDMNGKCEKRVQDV

Chain of human ADAM19 D+C construct (438-646) (Q9H013 438-646): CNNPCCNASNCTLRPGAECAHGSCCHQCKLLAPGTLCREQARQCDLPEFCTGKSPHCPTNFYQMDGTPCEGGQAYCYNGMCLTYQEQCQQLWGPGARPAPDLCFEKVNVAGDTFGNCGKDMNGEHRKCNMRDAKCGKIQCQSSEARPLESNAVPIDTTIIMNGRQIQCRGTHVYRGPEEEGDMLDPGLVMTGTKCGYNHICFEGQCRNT
Chain of full recombinant ADAM10 ECD (species not named for the experiment) (Q10741 20-672): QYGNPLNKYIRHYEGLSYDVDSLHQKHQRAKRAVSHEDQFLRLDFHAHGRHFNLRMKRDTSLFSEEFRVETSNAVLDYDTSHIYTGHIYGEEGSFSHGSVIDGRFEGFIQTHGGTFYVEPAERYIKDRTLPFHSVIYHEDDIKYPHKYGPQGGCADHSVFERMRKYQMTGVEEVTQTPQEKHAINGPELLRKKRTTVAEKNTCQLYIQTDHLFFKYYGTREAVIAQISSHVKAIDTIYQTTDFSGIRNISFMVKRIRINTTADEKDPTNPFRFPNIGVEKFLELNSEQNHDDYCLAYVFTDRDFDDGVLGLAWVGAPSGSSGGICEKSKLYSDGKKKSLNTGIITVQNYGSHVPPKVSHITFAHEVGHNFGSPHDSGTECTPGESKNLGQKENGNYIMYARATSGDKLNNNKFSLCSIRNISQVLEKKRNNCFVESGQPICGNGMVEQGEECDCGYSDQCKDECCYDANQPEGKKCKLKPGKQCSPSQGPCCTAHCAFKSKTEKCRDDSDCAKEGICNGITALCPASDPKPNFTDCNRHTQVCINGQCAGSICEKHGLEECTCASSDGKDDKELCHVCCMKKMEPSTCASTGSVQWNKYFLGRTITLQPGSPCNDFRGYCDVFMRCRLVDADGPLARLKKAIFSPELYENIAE

B1: murine anti-ADAM10 monoclonal antibody 8C7 (IgG) (antibody, V domains shown)
VH: QVQLEESGAELARPGSSVKLSCKASGYTFTNYWLQWVKQRTGQGLEWIGAIYPRDGDAKYSQKFKDKASLTVNESSSTAYMHLSALASEDSAVYYCARANYGLYYAMDRWGQGTSVTVSS
VL: DIFLTQSPANMSVSPGERVSFSCRASQNIGTNIHWYQQRTNGSPRLLIKYASESISGIPSRFSGSGSGTDFILSINTVESEDIAVYFCQQSNRWPFTFGSGTKLEVI
Take B1: the binding result in test [1] is “binds”.

B2: fully human anti-ADAM10 monoclonal antibody 1H5 (IgG) (antibody, V domains shown)
VH: QVQLVESGGGLVKPGGSLRLSCAASGFTFSDYYMSWIRQAPGKGLEWVSYISSSGSTIYYADSVKGRFTISRDNAKNSLYLQMNSLRAEDTAVYYCARDFYDSKIFDYWGQGTLVTVSS
VL: DIQMTQSPSSLSASVGDRVTITCRASQSISSYLNWYQQKPGKAPKLLIYAASSLQSGVPSRFSGSGSGTDFTLTISSLQPEDVGVYYCMEGLKTPFTFGPGTKLEIK
In the case of B2, the Kd in test [2] is roughly 200 nM. Also, the binding result in test [3] and in test [4] was “no binding” throughout.

The Kd is the equilibrium constant for the complex coming apart.
